{"source": "paper PMC6372703", "about": "“A thermostable laccase from Thermus sp. 2.9 and its potential for delignification of Eucalyptus biomass” (AMB Express, 2019)", "test_system": "CCn1c(=NN=c2sc3cc(S(=O)(=O)O)ccc3n2CC)sc2cc(S(=O)(=O)O)ccc21", "experiment": "purified protein", "settings": "20 mM sodium acetate, pH 5, 60 °C, 1 mM CuSO4", "data": [{"substance": "LAC_2.9 (Thermus sp. 2.9)", "values": [{"measurement": "Km", "result": "590 ± 80", "unit": "µM"}, {"measurement": "kcat", "result": "1 ± 0.04", "unit": "s⁻¹"}, {"measurement": "kcat/Km", "result": "1700 ± 200", "unit": "M⁻¹ s⁻¹"}]}]}
